Test results as given in patent US20120009199A1 (AstraZeneca / MedImmune, published 2012).

Target: the molecule itself
Assay: stopped-flow kinetics with light scattering detection, dilution from 10 to 1 mg/ml at 4 C, self-association
Description: High molecular weight forms are known to cause increased intensity of light scattering compared to monomer. Dissociation of the MabA present in the HPSEC shoulder, (apparent molecular weight of 213 kDa) would, therefore, be expected to result in a decrease in light scattering.

B1: MabA (antibody, human IgG2, V domains shown)
VH: QVQLVESGGGLVKPGGSLRLSCAASGFTFSDYYMNWIRQAPGKGLEWVSYISSSGSIIYYADSVKGRFTISRDNAKNSLYLQMNSLRAEDTAVYYCAREGRIAARGMDVWGQGTTVTVSS
VL: DIQMTQSPSSLSASVGDRVTITCRPSQSFSRYINWYQQKPGKAPKLLIYAASSLVGGVPSRFSGSGSGTDFTLTISSLQPEDFATYYCQQTYSNPPITFGQGTRLEIK
notes: Full-length human IgG2; also called anti-PDGFR-alpha antibody; human IgG2 anti-PDGFR-alpha antibody
In the case of B1, the “apparent half-life of dissociation of the self-associated species” value is reported as 14 s.
